Three molecules from US20230295273A1 (published 2023) can be followed below.

In assay [1] the target is PDGFRα-Fc Site 3 mutant (E208N, S210S as printed) (human) (UniProt P16234). Kind of assay: BLI (Octet Red); PDGFRα-Fc captured on anti-human Fc sensors, trimer as soluble analyte. (In general: In BLI a coated tip is dipped into the sample, and binding shifts an interference pattern.)
Assay [2] addresses T1, PDGFRα-Fc wild type (human PDGFRα (1-528) with C-terminal human IgG1 Fc tag) (human, UniProt P16234 24-528).
T1 construct: range 1-528; also called WT; PDGFRα WT; not shown: C-terminal human IgG1 (Fc) tag
The assay is described as above.

In assay [3] the target is T2, PDGFRα-Fc Site 1 mutant (E52N, E54S) (human, UniProt P16234 24-528).
T2 construct: range 1-528; Mutations meant to introduce an N-linked glycosylation site; not shown: C-terminal human IgG1 (Fc) tag
Described as above.

The target in assay [4] is T3, PDGFRα-Fc Site 2 mutant (E108N, N110S) (human, UniProt P16234 24-528).
T3 construct: range 1-528; Mutations meant to introduce an N-linked glycosylation site; not shown: C-terminal human IgG1 (Fc) tag
The description is as above.

For assay [5], the target named is T4, PDGFRα-Fc Site 4 mutant (E263N, K265S) (human, UniProt P16234 24-528).
T4 construct: range 1-528; Mutations meant to introduce an N-linked glycosylation site; not shown: C-terminal human IgG1 (Fc) tag
Described as above.

Assay [6] addresses T1, PDGFRα-Fc wild type (human PDGFRα …). Kind of assay: BLI with PDGFRα-Fc (FIG. 7D).

T1 sequence (P16234 24-528 limits assumed, form in doubt): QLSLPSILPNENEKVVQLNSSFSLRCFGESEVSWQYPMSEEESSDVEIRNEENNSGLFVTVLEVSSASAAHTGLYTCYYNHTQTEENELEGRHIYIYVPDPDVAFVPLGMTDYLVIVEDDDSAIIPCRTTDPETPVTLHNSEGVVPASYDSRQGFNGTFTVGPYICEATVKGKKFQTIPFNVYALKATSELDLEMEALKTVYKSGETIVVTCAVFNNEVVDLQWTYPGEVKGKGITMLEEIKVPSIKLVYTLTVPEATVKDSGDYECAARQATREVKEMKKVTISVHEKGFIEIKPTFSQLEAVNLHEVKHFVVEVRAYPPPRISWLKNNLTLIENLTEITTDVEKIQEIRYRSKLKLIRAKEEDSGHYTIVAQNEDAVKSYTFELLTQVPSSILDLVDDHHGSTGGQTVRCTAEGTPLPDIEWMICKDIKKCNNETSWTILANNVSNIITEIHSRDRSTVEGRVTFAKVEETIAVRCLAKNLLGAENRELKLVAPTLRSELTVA
T2 sequence (P16234 24-528 E52N/E54S limits assumed, form in doubt): as the sequence (P16234 24-528 limits assumed, form in doubt) above, with E29N, E31S counted along it
Sequence of PDGFRα-Fc Site 3 mutant (E208N, S210S as printed) (human) (P16234 24-528, stated change not applied): as the sequence (P16234 24-528 limits assumed, form in doubt) above
T3 sequence (P16234 24-528 E108N/N110S limits assumed, form in doubt): as the sequence (P16234 24-528 limits assumed, form in doubt) above, with E85N, N87S counted along it
T4 sequence (P16234 24-528 E263N/K265S limits assumed, form in doubt): as the sequence (P16234 24-528 limits assumed, form in doubt) above, with E240N, K242S counted along it

Molecule “HCMV gHgLgO trimer (soluble region, wild-type gO) (from UniProt P12824 24-716; Q68672 31-278)” showed a Kd in assay [1] of 21.5 nM.

B1: HCMV gHgLgO trimer (soluble region, wild-type gO) (other)
chain 1: […]
chain 2: VAVSVAPTAAEKVPAECPELTRRCLLGEVFQGDKYESWLRPLVNVTGRNGPLSQLIRYRPVTPEAANSVLLDDAFLDTLALLYNNPDQLRALLTLLSSDTAPRWMTVMRGYSECGDGSPAVYTCVDDLCRGYDLTRLSYGRSIFTEHVLGFELVPPSLFNVVVAIRNEATRTNRAVRLPVSTAAAPEGITLFYGLYNAVKEFCLRHQLDPPLLRHLDKYYAGLPPELKQTRVNLPAHSRYGPQAVDAR
chain 3: […]
notes: Expressed in Expi293 cells; gH, gL and gO are disulfide-linked; also called HCMV trimer; gHgLgO complex; not shown: C-terminal Myc-Avi-His tag; C-terminal Twin-Strep-tag
As for B1, the dissociation constant Kd was 2.25 nM in assay [2], 16.5 nM in assay [3], 2.7 nM in assay [4] and 4.65 nM in assay [5].

B2: HCMV gHgLgO trimer with charge mutations at gO (M84R, F111R, R117E, F136R, R212E, R230E, R234E, R336E, F342E, A351R, N358R) (other)
chain 1: […]
chain 2: B1 chain 2
chain 3: […]
notes: also called Trimermut; TrimerMUT; not shown: C-terminal Myc-Avi-His tag; C-terminal Twin-Strep-tag
With B2, in assay [6], binding was characterised by a dissociation constant (Kd) of 42500 nM and the “fold reduction of binding against Trimer-WT” value is around 10000 times.

Broadly, the Kd is the equilibrium constant for the complex coming apart. A high value points to lower affinity.
